Measured values taken from patent publication US7329728.

Assays:
Assay in all cases: cell-based or functional assay
[1] = target: ER-KRAB (mouse; human) (UniProt P19785)
[2] = target: ER-VP64 (mouse) (UniProt P19785)
[3] = target: Cf2-PBD-VP64 (human) (UniProt P06401)
Cf2-PBD-VP64 (human), sequence (P06401 640-914): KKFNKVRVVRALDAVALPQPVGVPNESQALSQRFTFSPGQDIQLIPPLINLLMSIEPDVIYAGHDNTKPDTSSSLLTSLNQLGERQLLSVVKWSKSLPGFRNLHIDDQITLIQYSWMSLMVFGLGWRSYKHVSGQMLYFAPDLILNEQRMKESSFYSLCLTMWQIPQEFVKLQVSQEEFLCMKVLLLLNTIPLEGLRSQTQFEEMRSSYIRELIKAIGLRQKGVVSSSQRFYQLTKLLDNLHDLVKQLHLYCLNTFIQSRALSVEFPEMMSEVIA

ER-KRAB (mouse; human), sequence (P19785 other isoform, or with tags, fused parts or gaps): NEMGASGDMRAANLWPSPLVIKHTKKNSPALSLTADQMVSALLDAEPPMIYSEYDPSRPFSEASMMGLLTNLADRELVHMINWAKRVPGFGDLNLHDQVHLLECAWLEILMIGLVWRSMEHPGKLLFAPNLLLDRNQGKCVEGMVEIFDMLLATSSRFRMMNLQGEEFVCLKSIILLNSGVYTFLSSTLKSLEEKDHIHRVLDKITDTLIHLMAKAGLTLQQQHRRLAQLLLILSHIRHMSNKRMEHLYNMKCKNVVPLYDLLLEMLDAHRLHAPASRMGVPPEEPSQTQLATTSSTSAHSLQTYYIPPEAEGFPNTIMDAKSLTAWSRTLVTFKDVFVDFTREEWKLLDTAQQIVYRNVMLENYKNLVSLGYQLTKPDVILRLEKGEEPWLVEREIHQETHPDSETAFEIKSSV
ER-VP64 (mouse), sequence (P19785 282-599 G525R): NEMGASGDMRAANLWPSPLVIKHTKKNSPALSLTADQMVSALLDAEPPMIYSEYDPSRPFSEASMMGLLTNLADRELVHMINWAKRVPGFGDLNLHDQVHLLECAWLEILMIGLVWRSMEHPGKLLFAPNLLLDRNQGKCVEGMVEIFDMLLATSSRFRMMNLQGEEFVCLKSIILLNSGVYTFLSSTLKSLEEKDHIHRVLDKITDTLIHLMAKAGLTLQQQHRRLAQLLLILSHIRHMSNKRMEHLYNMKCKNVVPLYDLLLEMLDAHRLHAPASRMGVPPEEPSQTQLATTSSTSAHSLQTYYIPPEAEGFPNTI
C7-PBD-VP64, sequence (P06401 640-914): as the sequence (P06401 640-914) above

| Substance | tamoxifen-dependent repression of the erbB-2 promoter (luciferase) [1] [fold] | erbB-2 promoter luciferase activity in HeLa cells, on addition of Tamoxifen [2] [fold] | ligand-dependent change in transcription of a C7-Cf2 TATA luciferase reporter [3] [fold] |
| --- | --- | --- | --- |
| E2C-ER (from UniProt P19785 282-599) | 2.9 | 3 |  |
| C7-PBD-VP64 (from UniProt P06401 640-914) |  |  | 2 |
